Values joined by “and” are separate entries in the source; they are usually repeats but may differ in a detail not shown here. Equal values may be shown once. Read-outs that look alike come from different tables or passages of the source.
Columns and labels:
[1] = system: HIV-1 CC 1/85; assay: Previous studies (300-TD-028): HIV-1 replication in PBMC quantitated by p24 ELISA, CC 1/85; format: cell-based
Protocol: The EC values were measured by p24 ELISA in previous studies, according to published methods. Because the p24 ELISA cannot efficiently quantitate p24 from the HIV-2 isolates used in this study, a commercial ELISA that measures reverse transcriptase was chosen as a readout for both the HIV-2 and HIV-1 infection assays in the present study.

[2] = system: primary R5 HIV-1 isolates; assay: Whole virus replication (neutralization) assay in PBMC, p24 ELISA; format: cell-based; conditions: variety of primary R5 strains (FIG. 1)
Protocol: The data reflect the median values from 8 or more independent assays. The genetic subtypes of the viruses are indicated in parentheses.
Replication of authentic HIV-1 is measured in activated peripheral blood mononuclear cells (PBMCs) using the monocyte/macrophage-tropic HIV-1 clone, JRFL (HIV-1JRFL), for these studies.
PBMCs are isolated from 4 separate donors (Leukopacks) by centrifugation on a Ficoll gradient. CD8 cells are depleted using RosetteSep CD8 Depletion Cocktail (#15663, StemCell Research, Vancouver, BC). […]
Serial dilutions of virus are tested in quadruplicate on activated PBMCs (1.4×10^5 PBMC/well). […] Virus titer is determined by the method of Reed and Muench (Table 11, see below). […]
The percent inhibition is derived as follows [1−(p24 levels in the presence of drug/p24 levels in the absence of drug)]×100. IC50 values are determined by fitting the inhibition data with a non-linear, four-parameter, variable slope equation (GraphPad Prism, ver. 4.02; GraphPad Software, San Diego, Calif.). […]
Serial dilutions of virus are tested in quadruplicate on activated PBMCs (1.4×10^5 PBMC/well). […] Virus titer is determined by the method of Reed and Muench (Table 11).

[3] = system: HIV-1; conditions: Table 2 comparison; cited from earlier work
[4] = system: HIV-1 (CCR5-tropic virus); format: in vivo; conditions: for Mean log10 HIV RNA change: Day 10 post-treatment
Text: The efficacy data collected during the study were changes in viral load and CD4 counts over time. The safety data collected during the study were serious adverse events (SAEs)/adverse events (AEs) and changes in laboratory parameters (hematology, chemistry), physical exam, viral tropism and ECGs over time.
All patients were screened prior to the study for the presence of virus that utilizes only CCR5 as the entry coreceptor., i.e., CCR5-tropic virus.
The primary efficacy endpoint was the reduction in plasma HIV RNA level as measured by the Roche Amplicor™ Assay. The primary efficacy endpoint is the maximum change from baseline in viral load, defined as HIV-1 copies/ml, as measured by the Roche Amplicor™ Assay.

[5] = individual assays (Source), previous study, p24 ELISA
[6] = previous studies n = 24, median

B1: PRO 140: humanized IgG4,κ anti-CCR5 monoclonal antibody, humanized version of murine mAb PA14 (antibody, chains of the INN, looked up, V domains shown)
VH: EVQLVESGGGLVKPGGSLRLSCAASGYTFSNYWIGWVRQAPGKGLEWIGDIYPGGNYIRNNEKFKDKTTLSADTSKNTAYLQMNSLKTEDTAVYYCGSSFGSNYVFAWFTYWGQGTLVTVSS
VL: DIVMTQSPLSLPVTPGEPASISCRSSQRLLSSYGHTYLHWYLQKPGQSPQLLIYEVSNRFSGVPDRFSGSGSGTDFTLKISRVEAEDVGVYYCSQSTHVPLTFGQGTKVEIK
In the case of B1, the EC50 [1, 5] is reported as 1.1 µg/mL and 0.004 µg/mL and 1.4 µg/mL and 0.16 µg/mL and 2.1 µg/mL and 0.006 µg/mL and <0.001 µg/mL and 0.001 µg/mL and 0.01 µg/mL and 4.5 µg/mL and 0.7 µg/mL and 0.96 µg/mL and 0.67 µg/mL and 0.58 µg/mL and 5.4 µg/mL and 4.6 µg/mL and 0.04 µg/mL and 0.85 µg/mL and 7.8 µg/mL and 5.1 µg/mL and 2.7 µg/mL and 0.08 µg/mL and 0.1 µg/mL, the EC90 [1, 5] is reported as 13 µg/mL and 0.34 µg/mL and 4.2 µg/mL and 3.6 µg/mL and 9.6 µg/mL and 0.22 µg/mL and <0.001 µg/mL and 0.01 µg/mL and 0.03 µg/mL and 1.1 µg/mL and >50 µg/mL and 4.9 µg/mL and 8.1 µg/mL and 24 µg/mL and 33 µg/mL and 7.3 µg/mL and 8.2 µg/mL and 0.88 µg/mL and 3.4 µg/mL and the “EC50 (mean)” value ([1]; previous studies n = 24, mean) is reported as less than 1.6 µg/mL. The “EC90 (mean)” value ([1]; previous studies n = 24, mean) was greater than 12 µg/mL, the “EC50 (median)” value [1, 6] was 0.69 µg/mL and the “EC90 (median)” value [1, 6] was 4.9 µg/mL. For the same molecule, the IC90 [2] was 3 to 4 µg/mL, the “Development of Resistance In Vitro” value [3] was “None at 40 weeks” and the “individual viral load reductions ranging up to” value ([4]; 2.0 mg/kg and 5.0 mg/kg dose levels) was “up to 2.5 log10 and ≤ 99.7%”. The “Maximum decrease of viral load at any time” value ([4]; 5 mg/kg) was −1.8 log, the “Patients with <400 copies/mL (anytime)” value ([4]; 5 mg/kg) was 4/10 and the “Patients with >1 log decrease (anytime)” value ([4]; 5 mg/kg) was 10/10. The “viral load decrease at day 22” value ([4]; 5 mg/kg) was −0.73, the “time to suppression of mean viral load by 1.0 log10 (90%)” value ([4]; 5.0 mg/kg cohort) was “within four days” and the “time viral load persisted at or below the 1.0 log10 level of reduction” value ([4]; 5.0 mg/kg cohort) was “two to three weeks”. The “Mean log10 HIV RNA change” value ([4]; 0.5 mg/kg) was −0.37 log10, the “Mean log10 HIV RNA change” value ([4]; 2.0 mg/kg) was −1.04 log10 and the “Mean log10 HIV RNA change” value ([4]; 5.0 mg/kg) was −1.70 log10. The “response rate (percentage of patients with a ≧1 log10 decrease in HIV RNA at any time)” value ([4]; highest dose cohort) was 100%.

— US20090074766A1, “Methods of inhibiting HIV-2 infection” (priority 2007, published 2009)
